Experimental findings from paper PMC9900698, “Phosphorylation Regulation of a Histone-like HU Protein from Deinococcus radiodurans” are described below.

As usually defined, the Kd is a measure of binding affinity in units of concentration.

T1: DrHU WT (Deinococcus radiodurans R1 (ATCC13939), UniProt Q9RZ89 1-122)
T1 sequence: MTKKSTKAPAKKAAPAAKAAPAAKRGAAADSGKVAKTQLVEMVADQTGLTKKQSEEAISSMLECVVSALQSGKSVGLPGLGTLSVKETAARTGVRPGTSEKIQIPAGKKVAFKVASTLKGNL

B1: Duplex DNA (24bp) (dsDNA)
DNA 1: TCAATTATGTCAATGACATAAAAG
DNA 2: CTTTTATGTCATTGACATAATTGA
B2: Duplex DNA (36bp) (dsDNA)
DNA 1: GCAGAGTCAATTATGTCAATGACATAAAAGGCTCAG
DNA 2: CTGAGCCTTTTATGTCATTGACATAATTGACTCTGC
B3: Duplex DNA (48bp) (dsDNA)
DNA 1: TAACAAGCAGAGTCAATTATGTCAATGACATAAAAGGCTCAGGCCTTC
DNA 2: GAAGGCCTGAGCCTTTTATGTCATTGACATAATTGACTCTGCTTGTTA

The target in the data set is T1, DrHU WT. The data set is described as follows: EMSA; 10 mM Mg2+; EMSA: 50 mM NaCl, 20 mM Tris-HCl pH 8.0, 0.1 mg/ml BSA, 3 mM DTT, 0.1 mM EDTA, 10% glycerol, 10 mM MgCl2, 50 nM DNA, 0-3200 nM DrHU, room temperature 20 min; 22% native PAGE in 1x TB. The following applies: protein: recombinant; tags: N-terminal His-MBP (pET28a-HMT), removed by TEV; chain copies: 2; label: 5'-FAM; blunt. (Mobility shift assays separate free from complexed probe on a gel.)
As for B1, the Kd came to 1480 ± 41.8 nM.
The result for B2 reads 1350 ± 200 nM; that for B3, 449 ± 29.6 nM.
